# Measured values reported in the supplement of paper PMC12855868.
# B1: library; numbered along this chain (parent)
# chain: MAAAGGARLLRAASAVLGGPAGRWLHHAGSRAGSSGLLRNRGPGGSAEASRSLSVSARARSSSEDKITVHFINRDGETLTTKGKVGDSLLDVVVENNLDIDGFGACEGTLACSTCHLIFEDHIYEKLDAITDEENDMLDLAYGLTDRSRLGCQICLTKSMDNMTVRVPETVADARQSIDVGKTS
# Variants of: B1
# Assay: scaled log2 fold change in cell abundance, elesclomol vs control (0 = silent mean, 1 = nonsense mean) (scaled log2 ratio); higher = higher viability under elesclomol (loss of FDX1 cuproptosis function)
# Conditions: glucose 10 mM
# Protocol: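 Deep mutational scan of full-length human FDX1: a pooled saturation-mutagenesis ORF library (every residue 2-184 mutated to all 19 amino acids plus stop, and silent codons where available) was expressed by lentivirus in FDX1-knockout ABC1 (14 days) or HEK293T (11 days) cells grown with elesclomol (ES) or DMSO control. Variant abundance came from ORF sequencing. The log2 fold change (ES vs control, mean of duplicates) was centred on the silent-variant mean (0) and scaled to the nonsense-variant mean (1). Higher values mean greater viability under ES, i.e. loss of FDX1 function in cuproptosis.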
# [1] = with ABC1 FDX1 KO, elesclomol 5 nM, 14 days
# [2] = with HEK293T FDX1 KO, elesclomol 40 nM, 11 days
# 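Also: variant abundance is its share of total variant reads in each endpoint sample, from next-generation sequencing of the integrated ORF PCR-amplified out of genomic DNA.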
Variant,scaled log2 fold change [1],scaled log2 fold change [2]
MAAAEGARLLRAASAVLGGPAGRWLHHAGSRAGSSGLLRNRGPGGSAEASRSLSVSARARSSSEDKITVHFINRDGETLTTKGKVGDSLLDVVVENNLDIDGFGACEGTLACSTCHLIFEDHIYEKLDAITDEENDMLDLAYGLTDRSRLGCQICLTKSMDNMTVRVPETVADARQSIDVGKTS [G5E],-0.0118,0.75
MAAAAGARLLRAASAVLGGPAGRWLHHAGSRAGSSGLLRNRGPGGSAEASRSLSVSARARSSSEDKITVHFINRDGETLTTKGKVGDSLLDVVVENNLDIDGFGACEGTLACSTCHLIFEDHIYEKLDAITDEENDMLDLAYGLTDRSRLGCQICLTKSMDNMTVRVPETVADARQSIDVGKTS [G5A],-0.65,0.164
MAAADGARLLRAASAVLGGPAGRWLHHAGSRAGSSGLLRNRGPGGSAEASRSLSVSARARSSSEDKITVHFINRDGETLTTKGKVGDSLLDVVVENNLDIDGFGACEGTLACSTCHLIFEDHIYEKLDAITDEENDMLDLAYGLTDRSRLGCQICLTKSMDNMTVRVPETVADARQSIDVGKTS [G5D],0.153,0.63
MAATGGARLLRAASAVLGGPAGRWLHHAGSRAGSSGLLRNRGPGGSAEASRSLSVSARARSSSEDKITVHFINRDGETLTTKGKVGDSLLDVVVENNLDIDGFGACEGTLACSTCHLIFEDHIYEKLDAITDEENDMLDLAYGLTDRSRLGCQICLTKSMDNMTVRVPETVADARQSIDVGKTS [A4T],0.364,0.164
MAAYGGARLLRAASAVLGGPAGRWLHHAGSRAGSSGLLRNRGPGGSAEASRSLSVSARARSSSEDKITVHFINRDGETLTTKGKVGDSLLDVVVENNLDIDGFGACEGTLACSTCHLIFEDHIYEKLDAITDEENDMLDLAYGLTDRSRLGCQICLTKSMDNMTVRVPETVADARQSIDVGKTS [A4Y],0.257,0.669
MAAQGGARLLRAASAVLGGPAGRWLHHAGSRAGSSGLLRNRGPGGSAEASRSLSVSARARSSSEDKITVHFINRDGETLTTKGKVGDSLLDVVVENNLDIDGFGACEGTLACSTCHLIFEDHIYEKLDAITDEENDMLDLAYGLTDRSRLGCQICLTKSMDNMTVRVPETVADARQSIDVGKTS [A4Q],-0.35,–
MAARGGARLLRAASAVLGGPAGRWLHHAGSRAGSSGLLRNRGPGGSAEASRSLSVSARARSSSEDKITVHFINRDGETLTTKGKVGDSLLDVVVENNLDIDGFGACEGTLACSTCHLIFEDHIYEKLDAITDEENDMLDLAYGLTDRSRLGCQICLTKSMDNMTVRVPETVADARQSIDVGKTS [A4R],-0.535,-1.29
MAAGGGARLLRAASAVLGGPAGRWLHHAGSRAGSSGLLRNRGPGGSAEASRSLSVSARARSSSEDKITVHFINRDGETLTTKGKVGDSLLDVVVENNLDIDGFGACEGTLACSTCHLIFEDHIYEKLDAITDEENDMLDLAYGLTDRSRLGCQICLTKSMDNMTVRVPETVADARQSIDVGKTS [A4G],-0.52,-0.212
MAAMGGARLLRAASAVLGGPAGRWLHHAGSRAGSSGLLRNRGPGGSAEASRSLSVSARARSSSEDKITVHFINRDGETLTTKGKVGDSLLDVVVENNLDIDGFGACEGTLACSTCHLIFEDHIYEKLDAITDEENDMLDLAYGLTDRSRLGCQICLTKSMDNMTVRVPETVADARQSIDVGKTS [A4M],0.0396,-0.34
MAAKGGARLLRAASAVLGGPAGRWLHHAGSRAGSSGLLRNRGPGGSAEASRSLSVSARARSSSEDKITVHFINRDGETLTTKGKVGDSLLDVVVENNLDIDGFGACEGTLACSTCHLIFEDHIYEKLDAITDEENDMLDLAYGLTDRSRLGCQICLTKSMDNMTVRVPETVADARQSIDVGKTS [A4K],0.11,0.267
MAALGGARLLRAASAVLGGPAGRWLHHAGSRAGSSGLLRNRGPGGSAEASRSLSVSARARSSSEDKITVHFINRDGETLTTKGKVGDSLLDVVVENNLDIDGFGACEGTLACSTCHLIFEDHIYEKLDAITDEENDMLDLAYGLTDRSRLGCQICLTKSMDNMTVRVPETVADARQSIDVGKTS [A4L],-0.0228,0.193
MAANGGARLLRAASAVLGGPAGRWLHHAGSRAGSSGLLRNRGPGGSAEASRSLSVSARARSSSEDKITVHFINRDGETLTTKGKVGDSLLDVVVENNLDIDGFGACEGTLACSTCHLIFEDHIYEKLDAITDEENDMLDLAYGLTDRSRLGCQICLTKSMDNMTVRVPETVADARQSIDVGKTS [A4N],0.0756,-0.335
MAASGGARLLRAASAVLGGPAGRWLHHAGSRAGSSGLLRNRGPGGSAEASRSLSVSARARSSSEDKITVHFINRDGETLTTKGKVGDSLLDVVVENNLDIDGFGACEGTLACSTCHLIFEDHIYEKLDAITDEENDMLDLAYGLTDRSRLGCQICLTKSMDNMTVRVPETVADARQSIDVGKTS [A4S],0.221,0.988
MAAFGGARLLRAASAVLGGPAGRWLHHAGSRAGSSGLLRNRGPGGSAEASRSLSVSARARSSSEDKITVHFINRDGETLTTKGKVGDSLLDVVVENNLDIDGFGACEGTLACSTCHLIFEDHIYEKLDAITDEENDMLDLAYGLTDRSRLGCQICLTKSMDNMTVRVPETVADARQSIDVGKTS [A4F],-0.326,0.068
MAAWGGARLLRAASAVLGGPAGRWLHHAGSRAGSSGLLRNRGPGGSAEASRSLSVSARARSSSEDKITVHFINRDGETLTTKGKVGDSLLDVVVENNLDIDGFGACEGTLACSTCHLIFEDHIYEKLDAITDEENDMLDLAYGLTDRSRLGCQICLTKSMDNMTVRVPETVADARQSIDVGKTS [A4W],0.154,-0.542
MAAVGGARLLRAASAVLGGPAGRWLHHAGSRAGSSGLLRNRGPGGSAEASRSLSVSARARSSSEDKITVHFINRDGETLTTKGKVGDSLLDVVVENNLDIDGFGACEGTLACSTCHLIFEDHIYEKLDAITDEENDMLDLAYGLTDRSRLGCQICLTKSMDNMTVRVPETVADARQSIDVGKTS [A4V],-0.0619,-0.566
MAAIGGARLLRAASAVLGGPAGRWLHHAGSRAGSSGLLRNRGPGGSAEASRSLSVSARARSSSEDKITVHFINRDGETLTTKGKVGDSLLDVVVENNLDIDGFGACEGTLACSTCHLIFEDHIYEKLDAITDEENDMLDLAYGLTDRSRLGCQICLTKSMDNMTVRVPETVADARQSIDVGKTS [A4I],0.158,0.102
